Experimental data published in publication PMC2174230 (The Journal of Cell Biology, 1999).

Target: T1, GST-Kap122p (S. cerevisiae, UniProt P32767 1-1081)
T1 sequence: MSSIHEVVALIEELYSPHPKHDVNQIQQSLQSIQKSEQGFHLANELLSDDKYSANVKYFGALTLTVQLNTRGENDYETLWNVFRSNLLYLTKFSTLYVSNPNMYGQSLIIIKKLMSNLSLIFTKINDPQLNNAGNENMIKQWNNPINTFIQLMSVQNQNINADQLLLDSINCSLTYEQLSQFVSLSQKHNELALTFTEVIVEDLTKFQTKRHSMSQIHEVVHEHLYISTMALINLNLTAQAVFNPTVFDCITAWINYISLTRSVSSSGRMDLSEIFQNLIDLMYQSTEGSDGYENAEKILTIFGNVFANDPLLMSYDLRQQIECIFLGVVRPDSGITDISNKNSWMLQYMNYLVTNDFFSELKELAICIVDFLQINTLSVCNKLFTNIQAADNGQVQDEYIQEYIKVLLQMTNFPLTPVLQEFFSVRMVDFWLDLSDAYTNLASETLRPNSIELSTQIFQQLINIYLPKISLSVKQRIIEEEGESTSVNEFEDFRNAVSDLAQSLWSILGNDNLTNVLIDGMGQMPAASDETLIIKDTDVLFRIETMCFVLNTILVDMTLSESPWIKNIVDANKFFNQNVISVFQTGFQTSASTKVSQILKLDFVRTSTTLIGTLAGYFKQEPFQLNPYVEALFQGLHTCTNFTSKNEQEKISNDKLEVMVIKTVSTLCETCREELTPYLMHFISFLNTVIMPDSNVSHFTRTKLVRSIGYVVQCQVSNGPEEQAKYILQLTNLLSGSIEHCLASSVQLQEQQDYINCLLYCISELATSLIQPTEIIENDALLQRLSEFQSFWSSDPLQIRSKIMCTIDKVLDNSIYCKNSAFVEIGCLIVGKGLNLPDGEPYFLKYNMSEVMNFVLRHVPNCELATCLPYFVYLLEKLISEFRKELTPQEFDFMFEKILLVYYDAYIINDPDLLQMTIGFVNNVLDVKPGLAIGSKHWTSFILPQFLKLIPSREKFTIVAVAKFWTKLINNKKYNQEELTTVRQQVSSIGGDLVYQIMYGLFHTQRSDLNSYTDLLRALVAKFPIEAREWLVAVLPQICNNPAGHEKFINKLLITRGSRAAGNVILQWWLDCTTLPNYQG
Assay: pull-down

B1: His6-Toa1p/Toa2p complex (recombinant TFIIA) (complex)
chain 1: MSNAEASRVYEIIVESVVNEVREDFENAGIDEQTLQDLKNIWQKKLTETKVTTFSWDNQFNEGNINGVQNDLNFNLATPGVNSSEFNIKEENTGNEGLILPNINSNNNIPHSGETNINTNTVEATNNSGATLNTNTSGNTNADVTSQPKIEVKPEIELTINNANITTVENIDDESEKKDDEEKEEDVEKTRKEKEQIEQVKLQAKKEKRSALLDTDEVGSELDDSDDDYLISEGEEDGPDENLMLCLYDKVTRTKARWKCSLKDGVVTINRNDYTFQKAQVEAEWV
chain 2: MAVPGYYELYRRSTIGNSLVDALDTLISDGRIEASLAMRVLETFDKVVAETLKDNTQSKLTVKGNLDTYGFCDDVWTFIVKNCQVTVEDSHRDASQNGSGDSQSVISVDKLRIVACNSKKSE
B1: binds.
